Source: the nanobody polyreactivity screen of Harvey et al. (2022)

assay: yeast display, Sf9 membrane polyspecificity reagent, FACS + sequencing; frameworks hold sequencing errors
In short: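 Galactose induction of a Saccharomyces cerevisiae BJ5465 synthetic nanobody display library ran 36–48 hours. The cells were then stained for 1 hour at 4 °C with 10% biotinylated, detergent-solubilized Sf9 membrane reagent, pulled down on streptavidin microbeads and FACS-sorted into low and high (top ~1%) gates on expression and reagent-binding fluorescence. Labels for polyreactivity follow the gate of origin.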

Row | Sequence | polyreactivity (PSR sort gate)
1 | QVQLVESGGGLVQAGGSIRLSCAASGSTFPGNAMGWYRQAPGKERELVASISGGGDSTYYADSVKGRFTISRDNAKNTVYLQMNSLKPEDTAVYYCAADTQGSVRPGYDYWGQGTQVTVSS | low polyreactivity
2 | QVQLVESGGGLVQAGGSIRLSCSASGSTFNIYAMGWYRKAPGKERELVAAISGNGDRTYYADSVKGRFTISRDNAKNTVYLQMTSLKPEDTAVYYCAAKYYGWGQGTQVTVSS | high polyreactivity
3 | QVQLVESGGGLVQAGGSIRLSSAASGLIFLGDPMGWYRQAPGKERELVASIRTGRSTSYADSVKGRFTFSRDNAKYTVYLQMNSLKPEDTAVYYCAADRGRPNLPGDYWGQGSQVTVSS | low polyreactivity
4 | QVQLVESGGGLVQAGGSIRLTCAASGLIFLVYPMGWYRPAPGKERELVASIRTGRSTSYADSVKGRFTISRDNAKYTVYLQMNSLKPEDTAVYYCAADRGRPNLPGDYWGQGTQVTVSS | low polyreactivity
5 | QVQLVESGGGLVQAGGSISLSCAASGRIFPTNDMGWYRQAPGKERELVASIDSVGSTKYADSVKGRFTISRDNAKNTVYLQMNSLKPEDTAVYYRALQVLNYDYWGQGTQVTVSS | low polyreactivity
6 | QVQLVESGGGLVQAGGSLCLSCAASGITFLFYAMGWYRQAPGKERELVAAITYSGGSTYYADSVKGRFTISRDNAKNTVYLQMNSLKPEDTAVYYCAADVWWSYYRYDYWGQGTQVTVSS | low polyreactivity
7 | QVQLVESGGGLVQAGGSLCLSCAASGSTLRRYAMGWYRQAPGKERELVAAITYRSGSTYYADSVKGRFTISRDNAKNTVYLQMNSLKPEDTAVYYCAKVGYVSKYWFAGDYWGQGTQVTVSS | high polyreactivity
8 | QVQLVESGGGLVQAGGSLGLSCAASGFIFVRYAMGWYRQATGKERELVGAITSTGSTYYADSVKGRFTISRDKAKNTVYLQMNSLKPEDTAVYYCAAVSRTSITFGYYAEYDYWGQGTQVTVSS | low polyreactivity
9 | QVQLVESGGGLVQAGGSLGLSCAASGRMFGYYTLGWYRQAPGKERELVAAITSSGGRTYYADSVKGRFTISRDYAKNTVYLQMNSLKPEDTAVYYCAADVEWTSRGSYYRYYYWGQGTQVTVSS | low polyreactivity
10 | QVQLVESGGGLVQAGGSLGLSCAASGRTFGFYAMGWYRQATGKQRELVAAITSTGGSTYYADSVKGRFTISRDNAKNTVYLQMNSLKPEDNAVYYCAADSGTKRYYYWGQGTPVTVSS | high polyreactivity
11 | QVQLVESGGGLVQAGGSLGLSCAASGSTFHLYAMGWYRQAPGKEREFVAAIRGRGGNTYADSVKGRFTISRDNAKNTVSLQMNSLKPEDTAVYYCAAPLLRVLRSPYSYNYWGQGTQVTVSS | low polyreactivity
12 | QVQLVESGGGLVQAGGSLGLSCAATGSTIPYNAMGWYRQAPGKERELVAAINSAGGTNYADSVKGRFTISRDNAKNTVYLQMNSRKPEDTAVYYCAADGSGYYDWYYYWGQGTQVTVSS | low polyreactivity
13 | QVQLVESGGGLVQAGGSLGLTCAASGFILAQNAMGWYRQAPGKERELVAAISRRGGRTSYADSVKGRFTISRDYAKNTVYLQMNSLKPEDTAVYYCAALPPRASSDAGGWYVAEDYWGQGTQVTVSS | high polyreactivity
14 | QVQLVESGGGLVQAGGSLLISCAASGRTLDFNVMGWYRQAPGKERELVAAITWSGGSTYYADSVKGRFTISRDNAKNTVYLQMNSLKPEDTAVYYCAKDRWYWARRYDYWGQGTQVTVSS | high polyreactivity
15 | QVQLVESGGGLVQAGGSLLLICAASGLTFYAKVMGWYRQAPGKERELVASISRSGGRTYYADSVKGSFTISRDNAKNTVYLQMNSLKPEDTAVYYSAAADQVGQEDDYWGQGSQVTVSS | low polyreactivity
16 | QVQLVESGGGLVQAGGSLLLICAASGSIFYFYTMGWYRQAPGKERELVASITYSGGRTYYADSVKWSFTMSRDNAKHTVYLQMNSLKPEDPPVDYCAVRGYRRYWGQGTQVTVSS | high polyreactivity
17 | QVQLVESGGGLVQAGGSLLLSCAASGFNFTYYTMGWYRQAPGKERELVAAISYSGGSTYYAESVKGRFTISRDNAKNSVYLQMNSLKPEDTAVYYCAVRVSDKYISKRFEYWGQGTEVTVSS | high polyreactivity
18 | QVQLVESGGGLVQAGGSLLLSCAASGITFGDNAMGWYRQAPGKERELVAAISSGGSTDYADSVNGRFTISRDNAKNTVYLQMNSLKPEDTAVYYCAVDWVSVPEYDYWGQGTQVTVSS | low polyreactivity
19 | QVQLVESGGGLVQAGGSLLLSCAASGLIFSWNAMGWYRQAPGKERELVASISYSGGRTYYADSVKGRFTISRDNAKNTVYLQMNSLKPEDTAVYYCAADTNATTDPEMDYWGQGTQVTVSS | low polyreactivity
20 | QVQLVESGGGLVQAGGSLLLSCAASGNTFVNNAMGWYRQAPGKERELVAAISRRGGTTYYADSVKGRFTISRDNAKNTVYLKMKSLKPEDTAVYYCAKYGYAFDSWGQGTQVTVSS | high polyreactivity
21 | QVQLVESGGGLVQAGGSLLLSCAASGRIFAYYAMGWYRQAPGKERELVAGISQRGSRTYYADSVKGRFTISRDNAKNTVYLQMNSLKPEDTAVYYCAARDRRSVTMDYWGQGTQVTVSS | high polyreactivity

Row | Sequence | polyreactivity (PSR sort gate)
22 | QVQLVESGGGLVQAGGSLLLSCAASGRIFRPYAMGWYRQAPGKERELVAAISSSGGSTYYADSVKGRFTISRDNAKNTVYLEMNSLKPEDTAVYYCAARITQISYGSEIEHPYYYWGQGTQVTVSS | high polyreactivity
23 | QVQLVESGGGLVQAGGSLLLSCAASGRILDFYDMGWYRQAPGKERELVAAITNSASTYYADSVKGRFTISRDNAKNTVYLQMNRLKPEDTAVYYCNADLYRGAYYGTYWSDWGYDYWGQGTQVTVSS | low polyreactivity
24 | QVQLVESGGGLVQAGGSLLLSCAASGSIFGSNAMGWYTQATVKERELVAVITNGGRTYYADSVKGLFTISRDNAKNTVYLQMNSLKPEDTAVYYCAASRVYGWYGSYSTYGSVGQGTQVTVSS | high polyreactivity
25 | QVQLVESGGGLVQAGGSLLLSCAASGSIFGWYAMGWYRQAPGKERELVAAISSSDGSTYYADSVKGRFTISRDNPKNTVYLQMNSLKPEDTAVYYCATDSAFTYAQYDYWGQGTQVTVSS | low polyreactivity
26 | QVQLVESGGGLVQAGGSLLLSCAASGTTFDRNAMGGYRQAPGKEREIVDAIRFGGGSTNYADSVKGRFTISRDNAKNTVYLLMNSLKPEDTAVYYCNAERIWRYKYGYDYWGQGTQVTVSS | high polyreactivity
27 | QVQLVESGGGLVQAGGSLLLSCDASGGTLDYYVMGWYRQAPGKERELVAAISSSGGSTYYADSVKGRFTISRDNAKNTVYLQMNCLNPEDTAVYYCAGDPSPYGDEYDYWVQGTQVTVSS | low polyreactivity
28 | QVQLVESGGGLVQAGGSLLLSCSASGRIFGVNAMGGYRQAPGKERELVAAISAGGGNTYYADSVKGRFTISRDNAKNTVYLQMNSLKPEDTAVYYCNVQRSLRMDYWGQGTQVTVSS | high polyreactivity
29 | QVQLVESGGGLVQAGGSLLLSCSASGRTFAYNAMGLYRQAPGKEREWVASISSSDTSTYYADSVNGRFTISRDNAKNTVYLQMNSLKPVDTAVYYCAADGHPFKGVRYYYWGQGTQVTVSS | low polyreactivity
30 | QVQLVESGGGLVQAGGSLLLTCAASSSTFRPKVMGWYRQAPGKERELVAAISNGGRTYYADSLKGRFTISRDNAKNTVYLQMNSLKPEDTAVYYCAARGKTTKYNYWGQGTQVTVSS | high polyreactivity
31 | QVQLVESGGGLVQAGGSLPLRCPASGSIFYQYAMGWYRQAPGKVRELVARIRGSTGTTYYADSVKGRFTISRDNAKNTVYLHMNSLKPEDTAVYYCNAARYQGRSRFDYWGQGSQVTVSS | high polyreactivity
32 | QVQLVESGGGLVQAGGSLPLSCAASGITLYGYAMGWNRQAPGNERELVPAISRSGSSTYYADSVKGRFTISRDNAKNTVYLQMNILKPEDTAVYYCNVYSGRYWESHKFDSWGQGTQVTVSS | high polyreactivity
33 | QVQLVESGGGLVQAGGSLPLSCAASGNIFVTYDMGWYRQAPGKERELVASISWNGGSTNYADSVRGLFTISRDNAKNTVYLQMNSLKPEDTAVYYCAAEYWTSYADYRYDYWGQGTQVTVSS | low polyreactivity
34 | QVQLVESGGGLVQAGGSLPLSCAASGRIFNGYAMGGYIQAPGKERELVAAICWRGGRTYYADSVKGRFTISRDNAMNTVYLQRNSLKAEDTAVYYCNKDLPPQGQLRNMYYWGQGTIVTVSS | high polyreactivity
35 | QVQLVESGGGLVQAGGSLPLSCAASGRIFNYYTMGWYRPAPGKERELVAAISTRGGRTYYADSVKGRFTISRDNAKNSVYFQMNSLKPEDTAVYYCARDIRIRIVYDGIYNYWGQGTQVTVSS | high polyreactivity
36 | QVQLVESGGGLVQAGGSLPLSCAASGRIFYTYAMGWYRQAPGKERELVAAITYRGGSTYYADSVKGRFTISRDNAKNTVYLQMNILIPEDTAVYYCAARPGRGPDSRWRYKYDYWGQGTQVTVSS | high polyreactivity
37 | QVQLVESGGGLVQAGGSLPLSCAASGRTIDHYAMGWYRQAPGKERELVAAITSGGSTYYADSVKGRFTISRDNAKNTVYLQMNSLKPEDTAVYYCNKDSSFWGYYIAQVNERDYWGQGTQVTVSS | low polyreactivity
38 | QVQLVESGGGLVQAGGSLPLSCAASGRTYRYYAMGWYRQAPGKERELVAAITRRSGNTNYADSVKGRFTISRDNAKNTVYLQINSLKPEDTALYYCAAVGAKGARYDYWGQGTQVTVSS | high polyreactivity
39 | QVQLVESGGGLVQAGGSLPLSCAASGSIFQLNAMGWYRQAPGKERELVGSIRDGGSTSYADSVKGRFTISRDNAKNTVYLQMNSLKPADTAVYYCADLKLYIYDYWGQGTQVTVSS | high polyreactivity
40 | QVQLVESGGGLVQAGGSLPLSCAASGSIFTYNTMGSYRQAPGKERELVATISWSGGRTYYADSVKGRVTISRDNAKNTVYLQMNSLKPEDTAVYYCAAVYYSYYGYFLPYGYWGQGTQVTVSS | high polyreactivity
41 | QVQLVESGGGLVQAGGSLPLSCAASGSIFVGYAMGWYRQAPGKERELVAAITNSGGRTYYADSVKGRFTISRDNAKNTVYLQMNSLKPEDTAVYYCNRVTGKYRYWVGFEYWGQGTQVTVSS | high polyreactivity
